Results: patent US20070258982A1 (Pfizer, published 2007)
Numbering of substitutions follows the chain as printed.

T1: human IL-22 (human, UniProt Q9GZX6 34-179)
T1 sequence: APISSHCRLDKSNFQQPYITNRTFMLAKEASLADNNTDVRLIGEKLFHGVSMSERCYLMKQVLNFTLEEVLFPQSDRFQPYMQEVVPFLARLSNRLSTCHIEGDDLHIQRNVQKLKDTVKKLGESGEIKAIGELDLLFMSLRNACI

T2: IL-26 (human, UniProt Q9NPH9)
T2 construct: also called human IL-26
T2 sequence (cytokine, looked up): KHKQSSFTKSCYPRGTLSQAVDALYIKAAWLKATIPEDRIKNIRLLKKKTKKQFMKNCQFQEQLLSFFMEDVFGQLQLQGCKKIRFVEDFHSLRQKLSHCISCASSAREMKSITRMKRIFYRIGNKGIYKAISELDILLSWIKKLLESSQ

B1: 166B06 IgG (non-germlined) (antibody, V domains shown)
VH: EVQLVQSGAEVKKPGASVKVSCQASGYTFSDYYIHWVRQTPGQGFEWMGWVNPDTGGTRYAQKFQGWVTMTRDMSNTTAYMELPRLRDDDTAVYYCARDLTGFDPFDIWGQGTLVTVSS
VL: QSVLTQPPSVSVAPGKTATITCGGNNFRNKRVHWYQQRPGQAPVLVIYYDSDRPSGIPERFSGSRSGNTATLTISRVEAGDEADFYCQVWDLFNDNGVFGGGTKLTVLG
B2: 166G05 IgG (non-germlined) (antibody, V domains shown)
VH: B1 VH
VL: B1 VL with L92F, F93L, N94T, N96S, V98S
B3: 355E04 scFv (non-germlined) (scFv)
scFv: QVQLVQSGAEVKKPGASVKVSCKASGYTFTHYYMHWVRQAPGQGLEWVGWINPYTGGAFYAQKFQGRVTMTRDTSINTAYMELSRLGSDDTAVYYCAREPEKFDSPNAEIWGRGTMVTISSEGGGSGGGGSGGSGSAQAVLTQPSSVSGAPGQRVTISCTGSSSNIGAGYGVHWYQQLPGTAPKLLIYGNSNRPSGVPDRFSGSKSGTSASLAITGLQAEDEADYYCQSYDSSLSGYVFGTGTQLTVLSA
B4: 375G06 scFv (non-germlined) (scFv)
scFv: EVQLVQSGAEVKKPGASVKVSCQASGYTFSDYYIHWVRQTPGQGFEWMGWVNPDTGGTRYAQKFQGWVTMTRDMSNTTAYMELPRLRDDDTAVYYCARDLTGYDYYDRWGQGTLVTVSSGGGGSGGGGSGGGGGGSGGGGGGSGGGGSAQSVLTQPPSMSVAPGKTATITCGGNNFRNKRVHWYQQRPGQAPVLVIYYDSDRPSGIPERFSGSRSGNTATLTISRVEAGDEADFYCQVWDFLADEAMFGGGTKLTVLGAAAH
B5: 356A11 scFv (non-germlined) (scFv)
scFv: QVQLVQSGAEVKKPGASVKVSCKASGYTFTNYYMHWVRQAPGQGLEWVGWINPYTGSAFYAQKFRGRVTMTRDTSINTAYMELSRLGSDDTAVYYCAREPEKFDSDDSDVWGRGTMVTVSGGGGSSGGGGSGGSGSAQAVLTPPSVSGAPGQRVTISCTGSSSNIGAGYGVHWYQQLPGTAPKLIIYGDSSRPSGVPDRFSGSKSGTSASLAITGLQAEDEADYYCQSYDNSLSGYVFGTGTQLTVLSA
B6: 097D09 scFv (non-germlined) (scFv)
scFv: EVQLVESGGGLVTPGGSLRLSCAASGFTFSDYYMSWVRQAPGRGLEWVSAISGSGGSTYYADSVKGRITISRDNAKNSLYLQMSSLRSEDTAVYYCARGLWVWDPLDYWGRGTLVTVSSGGGGSGGGGSGGGGSDIQMTQSPSTLSASIGDRVTITCRASEGIYHWLAWYQQKPGKAPKLLIYKASSLASGAPSRFSGSGFGTDFTLTISSLQPDDFATYYCQQYSEFAWTFGGGTKLEIKRAAAH
B7: 367D04 scFv (non-germlined) (scFv)
scFv: EVQLVESGGGVVRPGGSLRLSCAASGFTFDDYGMNWVRQAPGKGLEWVSGVNWNGGTRDYAASVKGRFTISRDNAKNSLYLQMNSLRAEDTALYYCARGWYSGSPWSLGHWGRGTLVTVSSGGGGSGGGGSGGSGGGSGGSGGGSSGGGSGGGGSAQAVLTQPSSVSGSPGQSVTISCTGASGDVGAYNFVSWYQQHPGKTPKLIIYDVNKRPSGVSNRFSGSKSGNTASLTISRLQAEDESDYYCSSYTSRYTTEFGGGTKVTVLGAAAH
B8: 062A09 IgG (non-germlined) (antibody, V domains shown)
VH: QVQLVESGAEVKKPGASVKVSCKASGYTFTSYGISWVRQAPGQGLEWMGWVSAYTGNTNYAQKFQGRVTMTTDTSTSTAYMELRGLRSDDTAVYYCARDRGYYDAFDIWGQGTLVTVSS
VL: DIQMTQSPSTLSASIGDRVTITCRASEGIYHWLAWYQQKPGKAPKLLIYKASSLASGAPSRFSGSGFGTDFTLTISSLQPDDFATYYCQQMGEYNATIGGGTKLEIKR
B9: 354A08 scFv (non-germlined) (scFv)
scFv: QVQLVQSGAEKKPGASVKVSCKASGYTFTDYYMHWVRQAPGQGLEWVGWINPYTGGAFYAQKFRGRVTMTRDTSINTAYMELSRLGSDDTAVYYCAREPERFGDSTGQVWGRGTMVTVSSGGGGSGGGGSGGSRSAQAVLTQPSSVSGAPRQRVTISCTGSSSNIGAGYGVHWYQQLPGTAPKLLIYGNSNRPSGVPDRFSGSKSGTSASLAITGLQAEDEADYYCYHWDKEQSGYVFGTGTQLTVLSA
B10: 376B10 scFv (non-germlined) (scFv)
scFv: EVQLVQSGAEVKKPGASVKVSCQASGYTFSDYYIHWVRQTPGQGFEWMGWVNPDTGGTRYAQKFQGWVTMTRDMSNTTAYMELPGLRDDDTAVYYCARDLTGYDQYTAWGQGTLVTVSSGGGGSGGGGSGGGGSAQSVLTQPPSVSVAPGKTATITCGGNNFRNKRVHWYQQRPGQAPVLVIYYDSDRPSGIPERFSGSRSGNTATLTISRVEAGDEADFYCSTFDPFTDRPLFGGGTKLTVLGAAAH
B11: 166G05 scFv (non-germlined) (scFv)
scFv: EVQLVQSGAEVKKPGASVKVSCQASGYTFSDYYIHWVRQTPGQGFEWMGWVNPDTGGTRYAQKFQGWVTMTRDMSNTTAYMELPRLRDDDTAVYYCARDLTGFDPFDIWGQGTLVTVSSGGGGSGGGGSGGGGSAQSVLTQPPSVSVAPGKTATITCGGNNFRNKRVHWYQQRPGQAPVLVIYYDSDRPSGIPERFSGSRSGNTATLTISRVEAGDEADFYCQVWDFLTDSGSFGGGTKLTVLGAAAH
B12: 166B06 scFv (non-germlined) (scFv)
scFv: B11 scFv with G123S, F227L, L228F, T229N, S231N, S233V
B13: 062G05 scFv (non-germlined) (scFv)
scFv: QVQLVESGAEVKKPGASVKVSCKASGYTFTSYGISWVRQAPGQGLEWMGWISAYTGNTNYAQKFQGRVTMTTDTSTSTAYMELRSLRSDDTAVYYCARDRGYYDAFDIWGQGTLVTVSSGGGGSGGGGSGGGGSDIQMTQSPSTLSASIGDRVTITCRASEGIYHWLAWYQQKPGKAPKLLIYKASSLASGAPSRFSGSGFGTDFTLTISSLQPDDFATYYCQQMGEWKAAFGGGTKLEIKRAAAH
B14: 062A09 scFv (non-germlined) (scFv)
scFv: B13 scFv with I51V, S85G, F106Y, W228Y, K229N, A231T, F232I
B15: 368D04 scFv (non-germlined) (scFv)
scFv: EVQLVESGGGVVRPGGSLRLSCAASGFTFDDYGMNWVRQAPGKGLEWVSGVNWNGGTRDYAASVKGRFTISRDNAKNSLYLQMNSLRAEDTALYYCARGWYSGAAWNMGYWGRGTLVTVSSGGGGSGGGGSGGSGGGSGGGGGGSGGGGSAQAVLTQPSSVSGSPGQSITISCTGASGDVGAYNFVSWYQQHPGKTPKLIIYDVNKRPSGVSNRFSGSKSGNTASLTISGLQAEDESDYYCASLVSDFSVVFGGGTKVTVLGAAAH
B16: 355B06 scFv (non-germlined) (scFv)
scFv: EVQLVQSGAEVKKPGASVKVSCQASGYTFTDYYMHWVRQAPGQGLEWVGWINPYTGSAFYAQKFRGRATMTRNTSINTAYMELSRLGSDDTAVYYCAREPEKFGESSGQLWGRGTMVTISSGGGGSGGGGSGGSGSAQAVLTQPSSVSGAPGQRVTISCTGSSSNIGPGYGVHWYQQLPGTAPKLLIYGDSNRPSGVPDRFSGSKSGTSASLAITGLQAEDEADYYCQSYDSGLSGYVFGTGTQLTVLSA
B17: 087B03 scFv (non-germlined) (scFv)
scFv: EVQLVESGGGVVRPGGSLRLSCAASGFTFDDYGMNWVRQAPGKGLEWVSGVNWNGGTRDYAASVKGRFTISRDNAKNSLYLQMNSLRAEDTALYYCARGWYSGAAWNMGYWGRGTLVTVSSGGGGSGGGGSGGGGSAQAVLTQPSSVSGSPGQSITISCTGASGDVGAYNFVSWYQQHPGKTPKLIIYDVNKRPSGVSNRFSGSKSSNTASLTISGLQAEDESDYYCSSYTSTFSVVFGGGTKVTVLGAAAH
B18: 087B03 IgG (germlined) (antibody, V domains shown)
VH: EVQLVESGGGVVRPGGSLRLSCAASGFTFDDYGMNWVRQAPGKGLEWVSGVNWNGGTRDYAASVKGRFTISRDNAKNSLYLQMNSLRAEDTALYHCARGWYSGAAWNMGYWGRGTLVTVSS
VL: QAALTQPASVSGSPGQSITISCTGASGDVGAYNFVSWYQQHPGKAPKLIIYDVNKRPSGVSNRFSGSKSGNTASLTISGLQAEDEADYYCSSYTSTFSVVFGGGTKLTVLG

What follows are binders tested against T1, human IL-22 (assay: cell-based or functional assay).

Row | IC50 of IgG (pM) in BaF3-IL-22 proliferation assay | IC50 of scFv (pM) in BaF3-IL-22 proliferation assay | Binder
1 | 71 pM |  | B1
2 | 97 pM |  | B2
3 |  | 192 pM | B3
4 |  | 118 pM | B4
5 |  | 124 pM | B5
6 |  | 298 pM | B6
7 |  | 160 pM | B7
8 | 83 pM |  | B8
9 |  | 219 pM | B9
10 |  | 104 pM | B10
11 |  | 204 pM | B11
12 |  | 460 pM | B12
13 |  | 182 pM | B13
14 |  | 267 pM | B14
15 |  | 186 pM | B15
16 |  | 183 pM | B16
17 |  | 212 pM | B17

The binders below were run against T2, IL-26 (assay: ELISA: plate coated with 1 µg/ml antigen, IgG added at 1 µg/ml, HRP goat anti-human IgG, A450).
Experimental: Cross species reactivity of germlined and non-germlined optimized antibodies were determined as follows: ELISA plates (Costar, Cat. #3590) were coated overnight with 1 μg/ml of rat, mouse, or human IL-22 or human IL-26 in PBS buffer. Plates were washed with PBST buffer (0.05% Tween20 in PBS) 3 times, then blocked with 1% BSA (Sigma A8918)/PBST for 1 hr at RT. Antibodies were added at 1 μg/ml, incubated 1 hr at 25° C. […] The plates were incubated for 1 hour at 25° C., then washed with PBST, and developed with TMB (KPL, Cat. #50-76-04). Reaction was stopped with 0.18 M H₂SO₄ Plates were read at OD 450 nm.

Row | binding result | Binder
18 | no binding (tested: 1 µg/ml) | B18

The binders below were run against T3, BSA (bovine, UniProt P02769) (assay: ELISA: plate coated with antigen, IgG added at 1 µg/ml, HRP goat anti-human IgG, A450).
T3 construct: also called bovine serum albumin
T3 sequence (P02769 25-607 limits assumed): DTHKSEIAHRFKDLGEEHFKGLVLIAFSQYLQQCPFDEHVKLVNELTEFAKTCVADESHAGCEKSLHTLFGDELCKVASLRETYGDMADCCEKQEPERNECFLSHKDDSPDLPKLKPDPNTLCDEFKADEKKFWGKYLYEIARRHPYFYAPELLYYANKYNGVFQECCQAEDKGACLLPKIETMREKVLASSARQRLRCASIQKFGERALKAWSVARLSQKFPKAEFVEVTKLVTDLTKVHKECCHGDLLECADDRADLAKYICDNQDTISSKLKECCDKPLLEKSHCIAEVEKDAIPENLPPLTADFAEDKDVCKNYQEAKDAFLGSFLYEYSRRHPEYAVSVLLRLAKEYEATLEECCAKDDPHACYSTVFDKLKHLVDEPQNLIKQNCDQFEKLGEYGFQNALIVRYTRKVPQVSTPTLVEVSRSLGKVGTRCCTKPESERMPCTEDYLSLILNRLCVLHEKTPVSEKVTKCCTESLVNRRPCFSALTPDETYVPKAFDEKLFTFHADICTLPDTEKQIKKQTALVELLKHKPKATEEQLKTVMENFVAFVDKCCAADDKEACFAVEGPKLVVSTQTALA

Row | binding result | Binder
19 | no binding (tested: 1 µg/ml) | B18
